Experimental data: patent US8969026B2, “Polymeric reverse micelles as selective extraction agents and related methods of MALDI-MS analysis” (University of Massachusetts, priority 2007, dated 2015)

Key:
[1] = fluorescent pI markers, cited from earlier work; for Pka: second pKa column
[2] = Inverse micelle (polymer 1) extraction of a myoglobin tryptic digest at pH 7.1, MALDI-MS; assay type: physicochemical; conditions: myoglobin tryptic digest 1 μM, polymer 1 in toluene, K = Iorg/Iaq, [M+H]+, 3 replicates
Text: All of the peptides with pI values above 7.1 are extracted effectively, and with only one exception, peptides with pI values below 7.1 are not extracted effectively. Among the peptide fragments tested, the only exception is the peptide N140-G153 (m/z 1553), a peptide fragment that has a pI below 7.1 and still has K>1. […] One of two reasons could explain the observed results: First, because the pH of the solution is so close to the pI of this peptide, a significant fraction of the peptide is positively-charged at pH 7.1 and therefore extracted. Alternatively, the theoretically calculated pI value may be low.
(§1) A typical biphasic extraction procedure involves mixing 200 μL of a toluene solution of homopolymer 1 or 2 (1×10^−4 M) with 1 mL of an aqueous solution of peptide(s) that was buffered to pH ˜7.0 with 50 mM Tris/TrisHCl. The mixture is vortexed for 10 to 120 minutes and centrifuged at 12000 rpm for 30-40 minutes to break the resulting emulsion and separate the organic and aqueous layers. The top (organic) layer is then recovered and dried to obtain a solid residue. The residue is redissolved into 10 μL of THF and sonicated for 10 seconds to promote solubilization. Finally, 20 μL of an α-CHCA matrix solution (0.16 Min 60:40:0.3% THF:H2O:TFA) are added to the sample for a final volume of 30 μL. For MALDI-MS analysis the samples are applied to the target using the dried-droplet method, where 1 μL of the sample/matrix mixture is spotted on a stainless-steel target, and the solvent is evaporated at room temperature. The residual aqueous phase (˜1 mL) after extraction is also examined by MALDI-MS. Equal amounts (5 μL) of the aqueous phase and the matrix solution (0.16 M α-CHCA in 60:40:0.3% THF:H2O:TFA) are mixed, and 1 μL of the resulting solution is spotted, using the dried droplet method, on a stainless-steel target for MALDI-MS analysis.
Extraction of the myoglobin digest was done in a manner similar to described above. 1 mL aliquots of a 1×10^−6 M protein digest were buffered at pH 7.1 with 50 mM TRIS, mixed with 200 μL of a toluene solution of homopolymer 1 (1×10^−4 M), extracted, and analyzed by MALDI-MS as detailed above.
Proteolytic digestion. For the myoglobin tryptic digests, 110 μl of protein solution (˜3×10^−4 M in 50 mM TRIS buffer) were mixed with 40 μL of MeOH. The mixture was heated at 60° C. for 10 minutes to denature the protein. 150 μL of a trypsin solution, which contained 2 μg/450 μL of protein, 50 mM TRIS buffer, and 1 mM CaCl2, was added to the denatured protein sample, and the mixture was left to digest at 37° C. for 24 hours. The digestion was stopped by filtering the solution through a 10K MWCO Centricon filter. The filtrates were diluted to the desired concentration and used for extraction and analysis.

[3] = pH-dependent biphasic extraction of a peptide mixture with inverse micelles of polymer 1 in toluene, MALDI-MS ion abundance ratio; assay type: physicochemical; conditions: polymer 1 inverse micelles in toluene, K = Iorg/Iaq, [M+H]+ signal, [M+K]+ for spinorphin and β-amyloid, at least 4 replicates; for Ion abundance ratio (K ± sM) pH 4.0: aqueous pH 4.0; for Ion abundance ratio (K ± sM) pH 7.1: aqueous pH 7.1; for Ion abundance ratio (K ± sM) pH 9.0: aqueous pH 9.0
Text: The net charge within the inverse micelle of 1 is negative, affording a selective extraction of positively-charged peptides. In a typical experiment, a toluene solution containing 1 was mixed with an aqueous solution containing a mixture of peptides. After vortexing this mixture, the organic layer was separated and analyzed using MALDI-MS. […] Because the aqueous solution was buffered at a pH of 7.1, peptides with pI values above 7.1 were expected to be sequestered into the interior of the inverse micelles, while peptides with pI values below 7.1 would be mostly excluded based on Coulombic repulsion.
The ion abundance ratio is related to the extraction capacity of the polymer, and can be defined as the ratio of the MALDI ion abundance of the peptide in the organic phase that contains the inverse micelles (Iorg) to the ion abundance of the peptide remaining in the aqueous phase (Iaq) (K=Iorg/Iaq). These experiments were performed with the hypothesis that the extraction would be based on electrostatic interaction between the polymer and the peptide. To test this premise further, two control experiments were carried out. […] Therefore, a two-phase extraction experiment was done in the absence of homopolymer 1, and no peptide extraction into the organic phase was observed. Second, peptide extractions using a polymer without the negatively-charged functionality were performed. Polymer 2 contains charge-neutral pentaethyleneglycol functionalities instead of the carboxylic acid moieties. […] These two results are consistent with the hypothesis that the extraction is based on electrostatics.
Without limitation to any one theory or mode of operation, the pH of the overall aqueous solution is also likely to dictate the pH of the hydrated interiors of the inverse micelle where the binding takes place. Accordingly, extractions at three different pHs: 4.0, 7.1, and 9.0 were carried out; the results of these experiments are listed in Table 1. […] The results from experiments at pH 7.1 and 9.0 further support this idea. It should be noted that when the experiment is carried out at pH 9.0, the peptide with a pI of 7.7 is extracted to some extent. Such a result could be attributed to errors associated with aqueous solution pH measuring or to errors in the peptide pI calculation. Nonetheless, the tunability is still significant and therefore is a very useful result.
A Bruker Reflex III time-of-flight mass spectrometer was used to perform MALDI-MS analysis. The mass spectrometer is equipped with a 337-nm nitrogen laser, a 1.0 m flight tube, and a stainless steel sample target. All mass spectra were acquired in reflectron mode using a voltage of 16 kV. All reported spectra represent an average of 70 shots acquired at 30% laser power. The accelerating voltage was set to 20 kV.
as §1, with “Equal amounts (5 μL) of the aqueous phase and the matrix solution (0.16 M α-CHCA in 60:40:0.3% THF:H2O:TFA) are mixed, and 1 μL of the resulting solution is spotted, using the dried droplet method, on a stainless-steel target for MALDI-MS analysis.” left out

Q: Which pI [1] does the source give for Nc1ccccc1C(=O)NCCCCCC(=O)O [pI marker 3] here?
A: 4.0

Q: What does the source list for O=C(NCCN1CCOCC1)c1cc2ccccc2c(Br)c1O [pI marker 5]?
A: Pka1 [1]: 5.35; pI [1]: 6.2; Pka [1]: 6.95

Q: With O=C(NCCN1CCOCC1)c1cc2ccccc2cc1O [pI marker 6] as the molecule, how does the Pka1 [1] read?
A: 6.20

Q: What about the pI [1] of the same molecule?
A: 7.2

Q: And the Pka [1]?
A: 8.10

Q: Which Pka1 [1] does the source give for NCCCN1CCN(CCCNC(=O)c2cc3ccccc3cc2O)CC1 [pI marker 8] here?
A: 8.05

Q: And the pI [1]?
A: 9.0

Q: What about the Pka [1] of the same molecule?
A: 9.85

Q: With NCCCCCCNCCCCCCNC(=O)c1cc2ccccc2cc1O [pI marker 9] as the molecule, how does the Pka1 [1] read?
A: 9.95

Q: What about the pI [1] of the same molecule?
A: 10.3

Q: What about the Pka [1] of the same molecule?
A: 10.65

Q: For “ALELFRNDIAAK [tryptic fragment of equine myoglobin]”, which “Ion abundance ratio (K ± sM)” value [2] is on record?
A: 0.7 ± 0.1

Q: With “ASEDLKKHGTVVLTALGGILK (listed as Equus caballus) [tryptic fragment of equine myoglobin]” as the molecule, how does the “Ion abundance ratio (K ± sM)” value [2] read?
A: 36 ± 4

Q: For “GHHEAELKPLAQSHATK (listed as Equus caballus) [tryptic fragment of equine myoglobin]”, which “Ion abundance ratio (K ± sM)” value [2] is on record?
A: 425 ± 61

Q: With “GLSDGEWQQVLNVWGK (listed as Equus caballus) [tryptic fragment of equine myoglobin]” as the molecule, how does the “Ion abundance ratio (K ± sM)” value [2] read?
A: 0.3 ± 0.1

Q: With “HGTVVLTALGGILK (listed as Equus caballus) [tryptic fragment of equine myoglobin]” as the molecule, how does the “Ion abundance ratio (K ± sM)” value [2] read?
A: 32 ± 5

Q: Which “Ion abundance ratio (K ± sM)” value [2] does the source give for “HGTVVLTALGGILKK (listed as Equus caballus) [tryptic fragment of equine myoglobin]” here?
A: 51 ± 10

Q: Which “Ion abundance ratio (K ± sM)” value [2] does the source give for “HPGDFGADAQGAMTK (listed as Equus caballus) [tryptic fragment of equine myoglobin]” here?
A: 0.05 ± 0.004

Q: Which “Ion abundance ratio (K ± sM) pH 4.0” value [3] does the source give for “IARRHPYFL (listed as Homo sapiens) [Kinetensin, human peptide purchased from American Peptide Company]” here?
A: 337 ± 79

Q: What about the “Ion abundance ratio (K ± sM) pH 7.1” value [3] of the same molecule?
A: 882 ± 212

Q: And the “Ion abundance ratio (K ± sM) pH 9.0” value [3]?
A: 616 ± 198

Q: For “KGHHEAELKPLAQSHATK (listed as Equus caballus) [tryptic fragment of equine myoglobin]”, which “Ion abundance ratio (K ± sM)” value [2] is on record?
A: 310 ± 0.2

Q: With “KHGTVVLTALGGILK (listed as Equus caballus) [tryptic fragment of equine myoglobin]” as the molecule, how does the “Ion abundance ratio (K ± sM)” value [2] read?
A: 51 ± 10

Q: With “KKGHHEAELKPLAQSHATK (listed as Equus caballus) [tryptic fragment of equine myoglobin]” as the molecule, how does the “Ion abundance ratio (K ± sM)” value [2] read?
A: 140 ± 12

Q: Which “Ion abundance ratio (K ± sM)” value [2] does the source give for “LFTGHPETLEK (listed as Equus caballus) [tryptic fragment of equine myoglobin]” here?
A: 0.02 ± 0.02

Q: For “LFTGHPETLEKFDKFK (listed as Equus caballus) [tryptic fragment of equine myoglobin]”, which “Ion abundance ratio (K ± sM)” value [2] is on record?
A: 41 ± 6

Q: For “NDIAAKYKELGFQG (NDLAAKYKELGFQG; listed as Equus caballus) [tryptic fragment of equine myoglobin]”, which “Ion abundance ratio (K ± sM)” value [2] is on record?
A: 1.4 ± 0.4

Q: And the “Ion abundance ratio (K ± sM)” value ([2]; listed as N140-G153)?
A: 1.4

Q: For S YSMEHFRWGKPV [ACTH Human], which “Ion abundance ratio (K ± sM) pH 4.0” value [3] is on record?
A: 221 ± 37

Q: And the “Ion abundance ratio (K ± sM) pH 7.1” value [3]?
A: 422 ± 87

Q: And the “Ion abundance ratio (K ± sM) pH 9.0” value [3]?
A: 128 ± 41

Q: With “VEADIAGHGQEVLIR (listed as Equus caballus) [tryptic fragment of equine myoglobin]” as the molecule, how does the “Ion abundance ratio (K ± sM)” value [2] read?
A: 0.3 ± 0.04

Q: For “YKELGFQG (listed as Equus caballus) [tryptic fragment of equine myoglobin]”, which “Ion abundance ratio (K ± sM)” value [2] is on record?
A: 0.01 ± 0.001

Q: With “YLEFISDAIIHVLHSK (listed as Equus caballus) [tryptic fragment of equine myoglobin]” as the molecule, how does the “Ion abundance ratio (K ± sM)” value [2] read?
A: 0.0
